Numbering of substitutions follows the chain as printed.
B1: Antibody RF3 (antibody, V domains shown)
VL: DVVMTQTPLSLPVSLGDQASISCRSSQSLVHSNGNTYLHWYLQKPGQSPKLLIYIVSNRFSGVPDRFGGSGSGTDFTLKISRVEAEDLGVYFCSQSTHIPYTFGGGTKLEMK
VH: QVQLQQPGAELVRPGASVKLSCKASGYTFTNYWMNWWKQRPGQGLEWIGMIDPSDSETHYNQVFKDKATLTVDISSTTAYMHLSSLTSEDSAVYYCARDFGWGQGTLVTVSA
B2: Antibody RF1 (antibody, V domains shown)
VL: B1 VL with I21M, N35D, T36S, I55K, F60L, G68S, V90I, I99V, M111I
VH: QVQLQQPGAELVKPGASVKMSCKASGYTFTNYWLHWVMQRPGQGLEWIGMIDPSDSFTTYNQKFKGKATLTVDTSSSTAFMQLSSLTSEDSAVYYCTTVDHWGRGTTLTVSS

Molecular target: IL-37 expressed by splenocytes of IL-37 transgenic (IL-37tg) mice (human), Q9NZH6
Test: cell-based or functional assay

Chain of IL-37 expressed by splenocytes of IL-37 transgenic (IL-37tg) mice (human), Q9NZH6 (Q9NZH6 whole entry): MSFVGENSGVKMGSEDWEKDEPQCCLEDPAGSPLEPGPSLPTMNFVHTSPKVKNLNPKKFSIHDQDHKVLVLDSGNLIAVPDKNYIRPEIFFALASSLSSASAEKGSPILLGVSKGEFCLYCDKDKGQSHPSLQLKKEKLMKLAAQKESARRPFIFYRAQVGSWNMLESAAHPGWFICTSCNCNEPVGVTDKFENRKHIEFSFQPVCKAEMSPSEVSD

Binder	IL-6 abundance in supernatant of LPS-stimulated IL-37tg mouse splenocytes (ELISA)
B1	< 40%
B2	< 40%

Source: patent US20190352390A1
